In assay [1] the target is IgE-Fc, the Fc portion of human IgE (Cε2-Cε4 domains, V224-K547 by Dorrington & Bennich numbering, carrying a C225A mutation) (human) (UniProt P01854). Put plainly: flow cytometry, Alexa488 IgE-Fc on RBL-SX38 cells; control at 31 ug/mL. (Flow cytometry measures light scatter and fluorescence of single cells or particles in a stream.)
Assay [2] has the same target. Nature of the assay: flow cytometry, Alexa488 IgE-Fc on RBL-SX38 cells; control at 10 ug/mL.
Assay [3] shares this target. Put plainly: flow cytometry, Alexa488 IgE-Fc on RBL-SX38 cells; control at 100 ug/mL.
For assay [4] the target is unchanged. Put plainly: flow cytometry, Alexa488 IgE-Fc on RBL-SX38 cells; control at 3.1 ug/mL.
Assay [5] shares this target. Nature of the assay: flow cytometry, Alexa488 IgE-Fc on RBL-SX38 cells; control at 1 ug/mL.

Sequence of IgE-Fc, the Fc portion of human IgE (Cε2-Cε4 domains, V224-K547 by Dorrington & Bennich numbering, carrying a C225A mutation) (human) (P01854 other isoform, or with tags, fused parts or gaps C225A C225A limits assumed): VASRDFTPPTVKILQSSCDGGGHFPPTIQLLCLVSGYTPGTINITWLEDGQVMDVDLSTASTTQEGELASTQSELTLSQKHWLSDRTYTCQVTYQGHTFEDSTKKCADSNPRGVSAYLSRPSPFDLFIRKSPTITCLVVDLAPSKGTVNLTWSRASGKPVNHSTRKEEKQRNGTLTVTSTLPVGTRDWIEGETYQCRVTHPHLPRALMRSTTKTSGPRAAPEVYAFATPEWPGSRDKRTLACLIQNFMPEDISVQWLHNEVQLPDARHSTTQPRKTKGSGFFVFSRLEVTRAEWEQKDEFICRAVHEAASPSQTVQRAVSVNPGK

As for Isotype control (antibody), the dissociation rate of IgE-Fc from FcεRI on cells is 1.28e-05 s⁻¹ in assay [1]; 1.35e-05 s⁻¹ in assay [2]; 1.3e-05 s⁻¹ in assay [3]; 1.19e-05 s⁻¹ in assay [4]; 1.25e-05 s⁻¹ in assay [5].

The record behind these values is US20190144565A1 (UCB, published 2019).
